Results from paper PMC6345565.

Target: PICK1 WT without SNAP-tag (rat (Rattus norvegicus)), Q9EP80
Experiment: fluorescence polarisation; competition: increasing unlabelled peptide, fixed 70% saturating PICK1 with OrG DAT C13; 50 mM Tris pH 7.4, 125 mM NaCl, 1 mM DTT, 0.01% Triton X-100; on ice; apparent Ki

Q: EVRQFTLRHWLKV (modifications not checked) [unlabeled peptide of the DAT C-terminus (competitor in fluorescence polarisation)] was tested. Which Ki did it give?
A: The Ki was 2100 nM.
